Assay results reported in US20200109169A1 (BGI SHENZHEN, published 2020).

Target: T1, HLA-A0201 on the surface of T2 cells (human)
T1 construct: MHC class I molecule on T2 cells; surface HLA-A*02:01 was read with an anti-HLA-A*02:01 FITC monoclonal antibody after overnight loading with peptide
Assay: T2 cell peptide loading, flow cytometry with anti-HLA-A*02:01 FITC antibody, peptide 100 uM
Description: After centrifugation at 200 g for 5 minutes for cell collection, the collected cells were washed with phosphate buffer saline (PBS) buffer twice, before incubated with anti-HLA-A*02:01 FITC monoclonal antibody at 4° C. for 30 minutes. The mean fluorescence intensity of cells was then detected and analyzed by the flow cytometry (BD FACSJazz™)) and its software.

FI (fluorescence index)	Mean fluorescence intensity	Binder
1.63	650	PLAFLIFNI (Made by solid phase synthesis) [wild-type polypeptide PLAFLIFNI (SEQ ID NO: 7)]
1.74	677	TMAFLIFNV (Made by solid phase synthesis) [mutant polypeptide's variant TMAFLIFNV (SEQ ID NO: 6)]
1.79	690	TMAFLIFNL (Made by solid phase synthesis) [mutant polypeptide's variant TMAFLIFNL (SEQ ID NO: 5)]
1.67	660	TMAFLIFNI (Made by solid phase synthesis) [mutant polypeptide's variant TMAFLIFNI (SEQ ID NO: 2)]
1.49	615	TLAFLIFNL (Made by solid phase synthesis) [mutant polypeptide's variant TLAFLIFNL (SEQ ID NO: 4)]
1.6	643	TLAFLIFNI (Made by solid phase synthesis, purity >90% by HPLC) [mutant polypeptide TLAFLIFNI (SEQ ID NO: 1)]
1.51	620	TLAFLIFNV (Made by solid phase synthesis) [mutant polypeptide's variant TLAFLIFNV (SEQ ID NO: 3)]
